Experiments:
[1] = target: T1, human proteins on HuProt Human Proteome Microarray (Homo sapiens, UniProt Q9UK22); experiment: HuProt Human Proteome Microarray, off-target human proteins; format: binding; set-up: key to Z Score: Z = (F635 − mean F635 of all spots) / SD; average of duplicate spots; settings: Protein: FBXO2
T1 construct: purchased CDI Labs (HuProt); host or cells: yeast S. cerevisiae
T1 sequence (Q9UK22 1-296): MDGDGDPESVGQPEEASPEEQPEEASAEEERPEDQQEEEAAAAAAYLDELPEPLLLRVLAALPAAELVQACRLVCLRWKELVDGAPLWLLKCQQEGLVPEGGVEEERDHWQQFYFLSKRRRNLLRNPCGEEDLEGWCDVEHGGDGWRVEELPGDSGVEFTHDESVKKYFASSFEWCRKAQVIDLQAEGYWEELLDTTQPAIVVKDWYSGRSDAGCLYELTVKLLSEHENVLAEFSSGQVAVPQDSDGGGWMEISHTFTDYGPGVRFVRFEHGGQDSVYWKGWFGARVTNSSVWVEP
Source text: (§1) The HuProt™ Human Proteome Microarray provides the largest number of unique, full-length, individually purified human proteins on a single microscope slide. It provides >21,000 unique human proteins, isoform variants, and protein fragments—covering 16,794 unique genes. This includes 15,889 of the 19,613 canonical human proteins described in the Human Protein Atlas, with broad coverage across protein subclasses. This allows thousands of interactions to be profiled in a high-throughput manner. The full-length recombinant proteins are expressed in the yeast S. cerevisiae, purified, and printed on glass slides in duplicate along with a set of control proteins (GST, BSA, histones, IgG, etc.). The full list of the different proteins included in the HuProt™ Human Proteome Microarray as used in this Example is provided as “List B” in the Research Disclosures publication (ISSN 0374-4353, Questel Ireland Ltd) with database numbers 707018, 707019 and 707020, each entitled “Large scale protein arrange target protein identities” and each digitally published on 27 Jan. 2023, the contents of each of which are incorporated herein by reference in their entirety, fo the purposes of the disclosure of the proteins defined by “List B”. “List B” begins in Research Disclosures publication 707018, is continued in Research Disclosures publication 707019, and concludes Research Disclosures publications 707020, and so the three publications are to be read consecutively as a single disclosure of the “List B” proteins. The HuProt™ microarray is not restricted to a particular type of surface coating, although the default is glass coated with ultrathin nitrocellulose film for the non-covalent, yet irreversible, capture of active proteins to the surface.
(§2) Samples of humanised 7B1F3 and mouse 7B1F3 antibodies were analysed for binding specificities on HuProt™ human proteome arrays. A peptide with the sequence TDVLNQSKPVTL (“Peptide 3”) was added to the arrays at 0.1 mg/ml as a control.
(§3) After blocking, the arrays were probed with the antibody samples (0.1 μg/ml) at room temperature for 1 hour. Then the arrays were washed with TBST for 10 min×3 and probed with Alexa647-anti-human IgG Fc or Alexa647-anti-mouse IgG secondary antibodies under conditions optimized by CDI Labs for signal detection.
(§4) • Non-specific hits that directly bind to the secondary antibodies were eliminated from the analysis of the samples. • CDI software was used to quantify the specificity of each individual sample to specific proteins on the array based on Z Scores. • Z score is the average Z score of the duplicate spots of a given protein (each protein is printed in duplicate on a HuProt™ array). The Z score of each spot on a given array is calculated according to the algorithm below:
(§5) Z=[F635−F635(avg)]/F635(std) • F635(avg) and F635(std) are the average and standard deviation of the F635 values of all spots on the array, respectively. • S score is the difference of the Z Scores of a given protein and the one ranked next to it. If the S score of the top hit is >3, the antibody is considered to be highly specific for the top hit. • F635 is the average foreground signal intensity of 2 replicate spots of a given protein in the detection channel (635 nm). • B635 is the average background signal intensity of 2 replicate spots of a given protein in the detection channel (635 nm).

[2] = target: T2, human proteins on HuProt Human Proteome Microarray (Homo sapiens, UniProt Q96F63); experiment: as above; format: binding; set-up: key to Z Score: Z = (F635 − mean F635 of all spots) / SD; average of duplicate spots; settings: Protein: CCDC97
T2 construct: purchased CDI Labs (HuProt); host or cells: yeast S. cerevisiae
T2 sequence (Q96F63 1-343): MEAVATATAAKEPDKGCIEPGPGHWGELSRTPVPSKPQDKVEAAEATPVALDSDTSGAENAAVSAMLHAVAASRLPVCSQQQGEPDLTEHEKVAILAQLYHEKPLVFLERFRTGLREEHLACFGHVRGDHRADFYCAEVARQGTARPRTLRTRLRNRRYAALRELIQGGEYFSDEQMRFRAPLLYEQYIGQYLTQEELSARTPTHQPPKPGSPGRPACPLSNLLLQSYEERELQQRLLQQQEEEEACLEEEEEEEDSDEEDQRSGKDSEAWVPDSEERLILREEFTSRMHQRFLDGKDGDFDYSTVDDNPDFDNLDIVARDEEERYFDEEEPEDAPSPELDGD
Source text: as §1, §2, §3, §4, §5

B1: 7B1F3: mouse IgG1 kappa antibody against US28 ECD1 Peptide-N; VH SEQ ID NO: 211, VL SEQ ID NO: 213 (antibody, V domains shown)
VH: EVQLQQSGAELAKPGASVKMSCKASGYTFTNYWMHWVKQRPGQGLEWIGYVNPRTGYTEYNQKFKDKATLTADKSSRTAYMQLSSLTSEDSAVYSCARILNGTGFAYWGQGTLVTVSA
VL: DIVLTQSPSSLTVSVGEKFTMSCKSSQSLLYSSNQKNYLAWYQQKPGQSPKLLIYWASTRESGVPDRFTGSGSGTDFTLAISSVKPEDLAIYYCQQYYSFPLTFGAGTKLEIK
modifications: Mature form of VH sequence of 7B1F3, without the leader sequence; Mature form of VL sequence of 7B1F3, without the leader sequence
B1 was tested, and the F635 [1] was 4683, the “Z Score” value [1] was 13.486 and the F635 [2] was 2080. The “Z Score” value [2] was 5.922.
